Results on 2 substances are retold here after patent publication US20220048990A1.

One experiment concerns the target Human FcαRI (human) (UniProt P24071). The experiment can be described thus: Wasatch array SPR, antibody immobilised, n>=3.
For experiment [1], the target named is Human polymeric immunoglobulin receptor (human) (UniProt P01833). The experiment can be described thus: SPR (Biacore). On the technique in general: Surface plasmon resonance follows binding to a sensor surface in real time, without labels.
UniProt P01833, sequence (P01833 19-638 limits assumed): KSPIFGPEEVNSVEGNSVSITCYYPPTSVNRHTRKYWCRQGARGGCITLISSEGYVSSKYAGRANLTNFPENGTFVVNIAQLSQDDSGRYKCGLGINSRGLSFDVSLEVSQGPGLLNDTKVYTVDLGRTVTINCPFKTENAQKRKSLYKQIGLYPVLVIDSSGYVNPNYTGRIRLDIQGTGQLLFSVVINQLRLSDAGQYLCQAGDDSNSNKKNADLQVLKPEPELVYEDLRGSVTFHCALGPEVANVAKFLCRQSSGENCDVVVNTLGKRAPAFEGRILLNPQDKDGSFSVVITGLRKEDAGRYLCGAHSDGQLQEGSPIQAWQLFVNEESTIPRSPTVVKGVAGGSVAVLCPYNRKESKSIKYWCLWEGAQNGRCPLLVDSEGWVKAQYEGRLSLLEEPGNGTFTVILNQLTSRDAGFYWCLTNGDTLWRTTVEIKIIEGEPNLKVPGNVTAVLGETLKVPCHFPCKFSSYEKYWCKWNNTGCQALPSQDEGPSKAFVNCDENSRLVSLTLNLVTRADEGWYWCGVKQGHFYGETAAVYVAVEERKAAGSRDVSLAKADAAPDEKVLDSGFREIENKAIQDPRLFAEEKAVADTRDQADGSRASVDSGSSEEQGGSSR
Experiment [2] addresses T1, Mouse polymeric immunoglobulin receptor (mouse) (UniProt O70570).
T1 sequence (looked up): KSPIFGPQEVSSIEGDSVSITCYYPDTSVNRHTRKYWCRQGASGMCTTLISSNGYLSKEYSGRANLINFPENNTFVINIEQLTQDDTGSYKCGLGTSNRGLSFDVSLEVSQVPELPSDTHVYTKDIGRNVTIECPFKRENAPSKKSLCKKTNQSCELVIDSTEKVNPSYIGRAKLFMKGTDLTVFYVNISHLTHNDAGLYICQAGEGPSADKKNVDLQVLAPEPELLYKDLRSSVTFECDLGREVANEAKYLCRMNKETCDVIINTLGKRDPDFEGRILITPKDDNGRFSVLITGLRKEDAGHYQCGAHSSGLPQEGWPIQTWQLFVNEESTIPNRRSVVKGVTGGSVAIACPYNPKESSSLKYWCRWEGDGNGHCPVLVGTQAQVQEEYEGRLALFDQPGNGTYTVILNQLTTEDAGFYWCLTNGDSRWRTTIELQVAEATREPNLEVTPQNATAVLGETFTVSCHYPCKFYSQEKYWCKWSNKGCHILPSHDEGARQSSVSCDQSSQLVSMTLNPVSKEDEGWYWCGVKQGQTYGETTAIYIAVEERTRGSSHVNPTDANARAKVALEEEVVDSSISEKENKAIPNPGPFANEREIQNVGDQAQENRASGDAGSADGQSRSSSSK
In words: SPR (Biacore).

The target in experiment [3] is T1, Mouse polymeric immunoglobulin receptor (mouse). In words: SPR (Biacore); panel shown again on D00107.

UniProt P24071, sequence (P24071 22-227 limits assumed): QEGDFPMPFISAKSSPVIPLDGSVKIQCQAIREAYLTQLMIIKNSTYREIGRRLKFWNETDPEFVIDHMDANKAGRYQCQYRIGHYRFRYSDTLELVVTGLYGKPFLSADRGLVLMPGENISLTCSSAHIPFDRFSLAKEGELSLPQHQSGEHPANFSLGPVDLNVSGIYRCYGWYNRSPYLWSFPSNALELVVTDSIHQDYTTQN

For orientation: Kd means the constant that tells how readily two partners part at equilibrium. A high value points to lower affinity. With Human serum IgA monomer (antibody), the Kd with Human FcαRI (human) came out at 1750 nM. This lies in the single-digit micromolar range.

Regarding Glycosylated IgA2m2.Fc only Tetramer, the Kd worked out at 0.98 nM in experiment [1], 0.79 nM in experiment [2] and 0.79 nM in experiment [3].
